Patent publication US20080261267A1, “Cellulases from Rumen” (priority 2004, published 2008)

Assay: pH-dependent activity and pH stability
Type: biochemical
Settings: cell lysates; CMC; 40° C.
Procedure: FIG. 3 represents Table 3 giving an overview over the biochemical properties of the cellulases according to the invention. Reaction was performed at the optimum pH and temperature for each done using CMC as substrate. […] The values for clones pBKRR.1, 9, 11, 13, 14, 16 and 22 are depicted. For each clone the following data are given: • maximum pH at which the remaining activity after 24 h incubation at the indicate pH is >90% (column “Stable at pH”). […] Activity was measured after 2 h incubation and compared with a control reaction in buffer lacking dimethylsulfoxide, • detergent resistance given by the remaining activity in the corresponding buffer (optimum pH) containing the indicate detergent at a concentration for 0 to 3%. […]
FIG. 4 a-c represent the results of the determination of pH and temperature optima showing graphically views of the pH-dependence activity and temperature-dependence activity of the polypeptides according to the invention. The pH optima of rumial endoglucanases were measured under conditions described in Example 5: 4% CMC, 0.5 mL of 50 mM buffer at the corresponding pH and 0.1 mg E. coli cell lysates, for 5-30 min, at 40° C. Effect of temperature on endoglucanase activity was measured in 50 mM sodium acetate buffer pH 5.6. […]

B1: pBKRR.22: rumen endo-beta-1,4-glucanase, sequences FIG. 11/19 (protein)
chain: MLLASFSLFSCGGSDGDDSTPTPSVSLQLVSQSIAEGAQVDAASTTVLTLNYNNPVRVTGNGVTLNGIAVKAKVSGNTSVEIPLTLVEGTVYTLKVAWGAIVAAADGKVVAPEFTLNFTTKGNQQPPIDENSPIAKKMGWGWNLGNHFDTSSGADGVRPQWGYWDNAKPTQVLYNNLRNAGTSTVRIGVTWGNYQNTSNWDIDANYIAEVRQNVEWAEAAGLNVILNMHHDEYWLDIKGAANNSSTNTNIKNRIEKTWKQIAEAFKDKGEFLIFESFNEIQDGGWGWGANRTDGGKQYKTLNEWNQLVVNTIRATGGNNATRWIGIPSYAANPSLALETGFVLPTDAANRLMVSVHFYDPSNFTLSPYVSDDSSEYKSGGYSEWGHTAAKGKADTGSNEDHVVAIFKKLHDKFVAKNIPVYIGEYGCVMHKNTRSNYFRNYYLEYVCRAAHEYGMPLCIWDNNQTGGGNEHHGYFNHTDGQYLNAMESLVKTMIKAATSDDASYTLESVYNKAPK
modifications: Description of sequence sequence derived from genomic DNA library from rumen ecosystem, particularly amino acid sequence of clones pBKRR 22, 6, 8 and 23;(see Figure 19)
- activity at alkaline (pH 9.0-10.0) and acidophilic (3.5-4.0) conditions: without variation of enzyme activity
